Paper PMC4570272

T1: Puf5p RNA-binding domain (Saccharomyces cerevisiae, UniProt P39016 201-600)
T1 sequence: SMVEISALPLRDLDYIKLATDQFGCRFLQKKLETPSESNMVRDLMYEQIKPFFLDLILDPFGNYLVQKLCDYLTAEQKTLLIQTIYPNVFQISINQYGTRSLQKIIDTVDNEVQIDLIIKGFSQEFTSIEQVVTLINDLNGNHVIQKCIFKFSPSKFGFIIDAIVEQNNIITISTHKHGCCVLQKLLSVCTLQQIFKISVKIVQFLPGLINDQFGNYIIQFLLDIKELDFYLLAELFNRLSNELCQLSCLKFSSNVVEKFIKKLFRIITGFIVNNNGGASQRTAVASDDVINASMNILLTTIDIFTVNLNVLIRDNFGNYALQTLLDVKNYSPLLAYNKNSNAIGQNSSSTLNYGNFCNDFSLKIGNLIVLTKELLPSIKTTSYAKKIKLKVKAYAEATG


Target: T1, Puf5p RNA-binding domain
Test: EMSA; EMSA: 10 mM HEPES pH 7.4, 50 mM NaCl, 1 mM EDTA, 0.1 mg/ml BSA, 0.01% Tween 20, 0.1 mg/ml yeast tRNA, 100 pM RNA, overnight at 4 C

Binder	Kd
UGUAUAUA (ssRNA) [NRE (8)]	3200 nM
UGUACUAUA (ssRNA) [SMX2 (9)]	28.4 nM
UGUAUUUGUA (ssRNA) [MFA2 (10)]	179 nM
UGUAAUGAUUA (ssRNA) [AAT2 (11)]	345 nM
UGUAACUUUUUA (ssRNA) [AMN1 (12)]	106 nM
